Data: publication PMC12375970 (2025)

Molecular target: importin-alpha2 (mImpα2) (Mus musculus, UniProt P52293)
Assay: MST

Kd: ~1000 nM
B1: TAF8 NLS NLS (peptide)
chain: PVKKPKIRRKKSLS
